Here are results for 41 sequences from the nanobody polyreactivity screen of Harvey et al. (2022).

A short description of this data set: yeast display, Sf9 membrane polyspecificity reagent, FACS + sequencing; frameworks hold sequencing errors. In short, it runs like this:
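Sorting gates, low and high (top ~1%), were placed on anti-HA fluorescence to track expression and on streptavidin fluorescence to track reagent binding. A clone's polyreactivity label is taken from the gate it came out of. The reagent was 10% biotinylated, detergent-solubilized Sf9 membrane, applied for 1 hour at 4 °C to galactose-induced yeast display cells.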
With “QVQLVESGGGLVQAGGSLRLSCAASGRTFYTYAMGWYRQAPGKARELVAAISSSGSTYYADSVKGRFTISRDNAKNTVDLQMNSLKPEDTAGYYCNARTSRYRRGGDSWGQGTQVTVSS”, the “polyreactivity (PSR sort gate)” value is “high polyreactivity”. The value for “QVQLVESGGGLVQAGGSLRLSCAASGRTFYTYVMGWYRQAPGKEREFVAAITYSGGSTYYADSVKGRFTISRDNAKNTVYLQMNSLKPEDTAVYYCNDEWTYSEWYGQYLEFDYWGQGTQVTVSS” was “high polyreactivity”; that for “QVQLVESGGGLVQAGGSLRLSCAASGRTFYVKSMGWYRQAPGKERELVAGISFSDGSTYYADSVKGRFTISRDNAKNTVYLQMNSLKPEDTAVYYCATVGAFDIYYGYGYWGQGTQVTVSS” was “low polyreactivity”. In the case of “QVQLVESGGGLVQAGGSLRLSCAASGRTFYVNAMGWSRHAPGIERELVAGISFSDGSTYYADSVKWRFTISRDNAKSTVYLQMNSLKPEDTAVYYCATVGALDIYYGYGYWGQGTQVTVSS”, the “polyreactivity (PSR sort gate)” value was “low polyreactivity”. Turning to “QVQLVESGGGLVQAGGSLRLSCAASGRTFYVSAMGWYRQAPGKERELVAAISWSGGSTYYADSVKGRFTISRDNAKNTVYLQMNSLKPEDTAVYYCAAQTYQRHVVAYDYWGQGTQVTVSS”, the “polyreactivity (PSR sort gate)” value was “low polyreactivity”.

Consider “QVQLVESGGGLVQAGGSLRLSCAASGRTFYVYAMGWYIQAPGKERELVAAISWGGGSTYYSDSVKGRFTISRDNAKNTVYLQMNSLKPEDTAVYFCAADKTRYRLGRDYWGQGTQVTVSS”, for which the “polyreactivity (PSR sort gate)” value is given as “low polyreactivity”. Then “QVQLVESGGGLVQAGGSLRLSCAASGRTFYVYAMGWYRQAPGKERELVAAISKSGGSTYYADSVKGRFTISRDNAKNTVYLQMNSLKPEDTAVYYCAARKSDPRTKLYNYWGQGTQVTVSS”, with “high polyreactivity”. The value for “QVQLVESGGGLVQAGGSLRLSCAASGRTFYVYTMGWYRQAPGKERELVAAITSGGSTNYADSVKGRFTISRDNAKNTVYLQMNSLKPEDTAVYYCAARVSTVFKRYYYWGQGTQVTVSS” was “high polyreactivity”.

Consider “QVQLVESGGGLVQAGGSLRLSCAASGRTFYWNPMGWYRQAPGKERELVAAITRNGGSTYYADSVKGRFTISRDNAKNTVYLQMNSLKPEDTAVYYCAARKRYGAGYDYWGQGTQVTVSS”, for which the “polyreactivity (PSR sort gate)” value was “high polyreactivity”. Then “QVQLVESGGGLVQAGGSLRLSCAASGRTFYWYTMGWYRQAPGKERELVAGIRSGGYTNYADSVKGRFTISRDNAKNTVYLQMNSLKPEDTAVYYCAAGGYSSAYGVSYGSYYYWGQGTQVTVSS”, with “low polyreactivity”. Then “QVQLVESGGGLVQAGGSLRLSCAASGRTFYYAMGWYRQAPGKERELVASITWSGGITTYADSVKGRFTISRDNAKNTVYLQLNSLKPEDTAVYYCAAQVIKGRTYQLGDYWGQGTQVTVSS”, with “high polyreactivity”; and “QVQLVESGGGLVQAGGSLRLSCAASGRTFYYAMGWYRQAPGKERELVASITWSGGITTYADSVKGRFTISRDNAKNTVYLQMNSLKPEDTAVYSCAAQVIKGRTYQLGDYWGQGTQVTVSS”, with “high polyreactivity”. For “QVQLVESGGGLVQAGGSLRLSCAASGRTFYYNAMGSYRQAPGKEREFVAAITWSGTRTYYADSVKGRFTISRDNAKNTVYLQMNSLKPEDTAVYYCAARRGVQGTQYYYWGQGTQVTVSS”, the “polyreactivity (PSR sort gate)” value is “high polyreactivity”. Then “QVQLVESGGGLVQAGGSLRLSCAASGRTFYYNAMGWDRQAPGKESELVARITYRSGRTNYADSVKGRFTISRDNAKNTVYLQMNSLKPEDTAVYYCAAAWWCGAGRTRYEYWGQGTQVTVSS”, with “high polyreactivity”; and “QVQLVESGGGLVQAGGSLRLSCAASGRTFYYNAMGWYRQAPGKERELVAAISSGDTTKYADSVKGRFTISRDNAKNTVYLQMNSLKPEDTAVYYCAAVYQSYTYYLPKYWSFYQNDYWGLGTQVTVSS”, with “low polyreactivity”. Then “QVQLVESGGGLVQAGGSLRLSCAASGRTFYYNGMGWYRQAPGKERELVAAITSGGTTSYADSVKGRFTISRDNAKNTVYLQMNSLKPEDTAVYYCAKRTVPRYEYWGQGTQVTVSS”, with “low polyreactivity”; and “QVQLVESGGGLVQAGGSLRLSCAASGRTFYYNTMGWYSQAPGKERELVATISRIGGSTYYADSVKGRFTISRDNAKNTVYLQMNSLKPEDTAVYYCAAYVAAYPTGYDYWGQGTQVTVSS”, with “high polyreactivity”; and “QVQLVESGGGLVQAGGSLRLSCAASGRTFYYNVMGWYRQAPGKESELVAAITNSGSTNYADSVKGRFTISRDNAKNTVYLQMNSLKPEDTAVYYCAARITYYGRKRGSRDYWGQGTQVTVSS”, with “high polyreactivity”. The value for “QVQLVESGGGLVQAGGSLRLSCAASGRTFYYYAMGWSRQAPGKERELVAAINRGGSTNYADSVKGRFTISRDNAKNTVYLQMNSQKPEATAVYDCNAAYYGPVRSKYVYWGQGTQVTVSS” was “high polyreactivity”. Consider “QVQLVESGGGLVQAGGSLRLSCAASGRTFYYYAMGWYRPAPGKERELVAAISWSGGRTYYADSVKGRFTISRDNAKNTVYLQMNSLKPEDTAVYYCNAEPPRGYTVSSGGEMDYWGQGTQVTVSS”, for which the “polyreactivity (PSR sort gate)” value is on record as “low polyreactivity”.

As for “QVQLVESGGGLVQAGGSLRLSCAASGRTFYYYAMGWYRQAPGKEREFVAAISWSGVRTSYADSVKGRFTISRDNAKNTVNLQMNSLKPEDTAVYYCATKPNPQSRPRYDHWGQGTQVTVSS”, the “polyreactivity (PSR sort gate)” value is listed as “high polyreactivity”. The value for “QVQLVESGGGLVQAGGSLRLSCAASGRTFYYYAMGWYRQAPGKEREFVASITWRGGRTYYADSVKGRFTISRDNAKNTVYLQMNSLKPEDTAVYYCAADGSYAIGGYGYWGQGTQVTVSS” was “high polyreactivity”; that for “QVQLVESGGGLVQAGGSLRLSCAASGRTFYYYAMGWYRQAPGKEREFVASITWRGGRTYYADSVKGRFTISRDNAKNTVYLQMNSLKPEDTAVYYCAAESYHPEYYYWGQGTQVTVSS” was “high polyreactivity”. Then “QVQLVESGGGLVQAGGSLRLSCAASGRTFYYYAMGWYRQAPGKERELVAAINTRGTSTYYADSVKGRFTISRDNAKNTVYLQMNSLKPEDTAVYYCAVDPYGDSWEDWFRNYYYGYDYWGQGTQVTVSS”, with “low polyreactivity”; and “QVQLVESGGGLVQAGGSLRLSCAASGRTFYYYTMGWYRQAPGKERELVAAITWNGGSTYYADSVKGRFTISRDNAKNTVYLQMNSLKPEDTAVYYCNARWTWRYDYWGQGTQVTVSS”, with “high polyreactivity”. With “QVQLVESGGGLVQAGGSLRLSCAASGRTGVNAIGWYRQAPGKERELVAAINNGDSTYYADSVKGRFTISRDNAKNTVYLQMNSLKPEDTAVYYCAAGLDEGDYWQESDYWGQGTQVTVSS”, the “polyreactivity (PSR sort gate)” value is on record as “low polyreactivity”. The value for “QVQLVESGGGLVQAGGSLRLSCAASGRTIDPNAMGWYRQAPGKERELVAAISRTGVRTYYADSVMGRFTISRDNAKNTVYLQMNSLKPEDTAVYYCNRYGARSNDYWGQGTQVPVSS” was “low polyreactivity”; that for “QVQLVESGGGLVQAGGSLRLSCAASGRTIDSYAMGWYRQAPGKERELVAAISKSGGRTYYADSVKGRFTISRDNAKNTVYLQMNSLKPEDTAVYYCNAQRVAYWRVAYDYWGQGTQVTVSS” was “high polyreactivity”. The value for “QVQLVESGGGLVQAGGSLRLSCAASGRTIGGYAMGWYRQAPGKERELVATITRGGRTYYADSVKGRFTISRDNAKNTVYLQMNSLKPEDTAVYYCAARYGQSRSVYNLYRFDYWGQGTQVTVSS” was “high polyreactivity”; that for “QVQLVESGGGLVQAGGSLRLSCAASGRTIGQNAMGWYRQAPGKERELVAAISASGSNTYYADSVKGRFTISRDNAKNTVYLQMNSLKPEDTAVYYCAKQVYRPGQQSRYDYWGQGTQVTVSS” was “low polyreactivity”; that for “QVQLVESGGGLVQAGGSLRLSCAASGRTIGVYAMGWYRQAPGKERELVAAISWSGGTTYYADSVKGRFTISRDNAKYTVYLQMNSLKPEDTAVYYCAADSYTEVDYWGQGTQVTVSS” was “low polyreactivity”. The value for “QVQLVESGGGLVQAGGSLRLSCAASGRTIIYNTMGWYRQAPGKEREFVAAINWSGGSTYYADSAKGRFTISRDNAKNTVYLQMNSLKPEDTAVYYCNAEAGYYRALIYDYWGQGTQVTVSS” was “low polyreactivity”; that for “QVQLVESGGGLVQAGGSLRLSCAASGRTIKYYAMGWYRQAPGKERQLVAVISWSGGRTYYADSVKGRFTISRDNAKNTVYLQMNSLKPEDTAVYYCNAVYPYYYLLKRYKEGYWGLGTQVTVSS” was “high polyreactivity”. Regarding “QVQLVESGGGLVQAGGSLRLSCAASGRTIPTYVMGWYRQAPGKERELVASIRSGGRTKYADSVKGRFTISRDNAKNTVYLQMNSLKPEDTAVYYCAADRRAYYYSFDYWGQGTQVTVSS”, the “polyreactivity (PSR sort gate)” value was “low polyreactivity”. Then “QVQLVESGGGLVQAGGSLRLSCAASGRTIPWNVMGWYRQAPGKERELVATITSRRTSTNYADSVKGRFTISRDNAKNTVYLQMNSLKPEDTAVYYCARRTVWGAGHYYYWGQGTQVTVSS”, with “high polyreactivity”. Then “QVQLVESGGGLVQAGGSLRLSCAASGRTIPYKSMGWYRQAPGKERELVAAITSGGTTNYADSVKGRFTISRDNAKNTVYLQMNSLKPVDTAVYYCAADSDASSQFRRDYWGQGTQVNVSS”, with “low polyreactivity”; and “QVQLVESGGGLVQAGGSLRLSCAASGRTIQTYTMGWYRQAPGKERELDAVITTRGGRTYYADSVKGRFTISRDNAKNTVYLQMNSLKPEDTAVYYCNKGIPTRSVRSYDYWGQGTQVTVSS”, with “high polyreactivity”. The value for “QVQLVESGGGLVQAGGSLRLSCAASGRTIQTYVMGWYRQAPGKERELVASIRSGGRTKYADSVKGRFTISRDNAKNTVYLQMNSLKPEDTAVYYCAADRRAYYYSFDYWGQGTQVTVSS” was “low polyreactivity”. As to “QVQLVESGGGLVQAGGSLRLSCAASGRTISVYGMGWYRQAPGKERELVASIPWRGGTTYYADSVKGRFTISRDNAKNTVYLQMNSLKPEDTAVYYCAIEPFRFRYYYWGQGTQVTVSS”, the “polyreactivity (PSR sort gate)” value was “high polyreactivity”. As for “QVQLVESGGGLVQAGGSLRLSCAASGRTISYYAMVWYRPAPGKERELVAAISSSGGSTYYADSVKGRFTISRDNAKNTFYLQMNSLKPEDTAVYYCAAYQRGNRYDYWGQGTQVTVSS”, the “polyreactivity (PSR sort gate)” value is given as “high polyreactivity”.

For the sequence “QVQLVESGGGLVQAGGSLRLSCAASGRTITAYTMVWYRQAPVKEREMVASISSGVTYADSVKGRFTISRDNAKNTVYLQMNRLKPEDTAVYYCAARLWYVQGYVPYVHHRFDYWGQGTQVTVSS”, the “polyreactivity (PSR sort gate)” value is given as “low polyreactivity”.
